Data taken from paper PMC7962911, “Modular Synthesis of Trifunctional Peptide-oligonucleotide Conjugates via Native Chemical Ligation” (Frontiers in Chemistry, 2021).

Experiments:
[1] = system: SMA patient-derived fibroblasts; assay: Confocal microscopy of Cy5 fluorescent uptake; format: cell-based, human; conditions: 1 and 2 µm in OptiMEM without serum, 1 h at 37°C, Cy5 excitation 633 nm
Protocol: For fluorescent uptake studies, SMA fibroblast cells were plated at a density of 60,000 cells/well of a µ-Slide 4 Well ^Ph+ Glass Bottom chamber slides precoated with poly-L-ornithine. The cells reached 80% confluency after 24 h. They were treated with Cy5-labelled peptide-PNA conjugates made up at a concentration of 1 and 2 µm in OptiMEM without serum for 1 h at 37°C. At 15 min to the end of incubation time, Hoechst (1:1,000 dilution) was added to each well. Cells were washed with PBS and images of cells were taken using the Leica SP8 Resonant Scanning microscope with 63×/1.4 oil objective. The images were acquired at the Cy5-specific excitation of 633 nm and emission of 638–779 nm and Hoechst excitation and emission of 405 nm and 410–585 nm, respectively.

full-length SMN2 mRNA = assay: SMN2 exon-inclusion assay (RT-qPCR of full-length SMN2 mRNA); format: cell-based, human; conditions: SMA patient-derived fibroblasts (Type-I, GM03813), conjugates 1 and 2 µm in serum-free Opti-MEM for 4 h at 37°C, then growth medium for 20 h, ∆∆Ct vs HPRT1, normalized to untreated = 1, mean ± SEM, N = 3
[2] = concentration range of 20–30 µm; peptides alone and as conjugate to ASOs; ref Neundorf et al., 2009; Shabanpoor et al., 2017; cited from earlier work
Text: We chose an FDA-approved oligonucleotide sequence (Table 1) targeting survival motor neuron-2 (SMN2) mRNA splice correction as a model ASO (in PNA chemistry) for conjugation to a previously characterized CPP derived from the receptor-binding domain of Apolipoprotein E [ApoE(133–150)] ([Meloni et al., 2020]). In order to synthesize trifunctional conjugates, three different functional moieties were selected for conjugation to the side-chain of […] that was generated during NCL of CPP-ASO. These functional moieties include the FDA-approved oligonucleotide sequence as above but incorporated in ...

## Ac-LRVRLASHLRKLRKRLLR-X-G-C-X-ATTCACTTTCATAATGCTGG | Cy5 [C2, Cy5-labelled ApoE-PNA conjugate, fluorophore on the cysteine thiol of C1]
[1]
  uptake in fibroblasts (Cy5 fluorescence): concentration-dependent increase in uptake

## Ac-LRVRLASHLRKLRKRLLR-X-G-C-X-ATTCACTTTCATAATGCTGG | Mal-ATTCACTTTCATAATGCTGG [C3, trifunctional conjugate of C1 with maleimide-PMO (SMN2) on the cysteine thiol]
full-length SMN2 mRNA
  antisense activity (change in the level of full-length SMN2 mRNA): higher activity compared to the peptide-PNA (C1) conjugate

## ApoE: previously characterized CPP derived from the receptor-binding domain of Apolipoprotein E (LRVRLASHLRKLRKRLLR; UniProt P02649 151-168, looked up, fragment)
[2]
  cytotoxic effect: no significant cytotoxic effect
